From patent EP2830663B1 (Sorrento Therapeutics, Inc., dated 2019)

Target: VEGFR2 on HUVECs (UniProt P35968 20-1356, limits assumed)
Experiment: cell-based or functional assay

Chain of VEGFR2 on HUVECs (P35968 20-1356 limits assumed): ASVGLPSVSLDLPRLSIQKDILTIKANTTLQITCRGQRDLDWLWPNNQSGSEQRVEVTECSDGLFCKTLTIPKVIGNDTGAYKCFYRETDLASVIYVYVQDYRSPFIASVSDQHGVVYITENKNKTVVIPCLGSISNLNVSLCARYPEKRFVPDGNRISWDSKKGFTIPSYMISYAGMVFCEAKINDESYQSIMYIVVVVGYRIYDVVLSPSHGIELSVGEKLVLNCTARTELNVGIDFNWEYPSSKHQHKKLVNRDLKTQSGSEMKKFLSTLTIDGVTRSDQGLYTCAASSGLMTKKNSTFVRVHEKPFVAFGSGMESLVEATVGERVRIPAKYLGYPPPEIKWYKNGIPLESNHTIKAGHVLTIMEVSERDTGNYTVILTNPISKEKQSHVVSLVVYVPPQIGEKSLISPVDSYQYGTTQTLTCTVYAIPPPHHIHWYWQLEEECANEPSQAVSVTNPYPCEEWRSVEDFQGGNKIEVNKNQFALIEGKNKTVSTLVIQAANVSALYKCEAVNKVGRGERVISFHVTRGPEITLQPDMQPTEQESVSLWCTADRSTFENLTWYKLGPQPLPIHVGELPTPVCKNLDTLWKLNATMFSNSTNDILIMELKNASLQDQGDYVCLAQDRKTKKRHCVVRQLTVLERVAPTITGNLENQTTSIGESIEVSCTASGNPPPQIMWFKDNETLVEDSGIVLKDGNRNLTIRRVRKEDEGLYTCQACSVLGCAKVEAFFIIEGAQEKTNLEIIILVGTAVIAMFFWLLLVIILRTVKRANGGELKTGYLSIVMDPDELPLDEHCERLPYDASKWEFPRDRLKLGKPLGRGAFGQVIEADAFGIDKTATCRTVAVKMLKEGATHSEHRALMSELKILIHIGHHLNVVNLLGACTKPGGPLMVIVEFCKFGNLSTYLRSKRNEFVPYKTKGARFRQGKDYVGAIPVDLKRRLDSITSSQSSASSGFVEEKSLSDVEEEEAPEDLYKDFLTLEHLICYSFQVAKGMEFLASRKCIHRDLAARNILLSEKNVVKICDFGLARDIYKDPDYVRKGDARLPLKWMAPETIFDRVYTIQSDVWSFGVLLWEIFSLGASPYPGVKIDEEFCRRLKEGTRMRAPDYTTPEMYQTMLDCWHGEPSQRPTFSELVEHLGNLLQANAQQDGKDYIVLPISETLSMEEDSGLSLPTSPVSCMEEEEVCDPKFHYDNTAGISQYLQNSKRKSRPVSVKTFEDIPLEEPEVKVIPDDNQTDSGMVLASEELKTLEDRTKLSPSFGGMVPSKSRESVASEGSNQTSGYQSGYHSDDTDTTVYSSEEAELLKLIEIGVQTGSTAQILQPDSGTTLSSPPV

IC50, inhibition of VEGF-induced HUVEC cell migration (Figure 14): 0.53 nM
IC50, inhibition of VEGF-induced HUVEC cell proliferation (Figure 13): 14.9 nM
IC50, inhibition of VEGF-induced HUVEC migration (modified Boyden chamber): 0.5 nM
IC50, inhibition of VEGF-induced HUVEC proliferation: 14 nM
IC50, inhibition of VEGF-induced p44/p42 MAPK (Erk1/2) phosphorylation in HUVECs (ELISA): 0.08 nM
B1: VK-B8 (antibody, V domains shown)
VH: QVQLVQSGAEVKKPGSSVKVSCKAYGGTFGSYGVSWVRRAPGQGLEWMGRLIPIFGTRDYAQKFQGRVTLTADESTNTAYMELSSLRSEDTAVYYCARDGDYYGSGSYYGMDVWGQGTLVTVSS
VL: ETTLTQSPATLSVSPGERATVSCRASQSLGSNLGWFQQKPGQAPRLLIYGASTRATGIPARFSGSGSGTEFTLTISSLQSEDFAVYFCQQYNDWPITFGQGTRLEIK
